Data taken from patent US7371376.

Legend:
[1] = target: human ErbB2 receptor on BT474 human breast tumor cells (human) (UniProt P04626); experiment: cell-based or functional assay
[2] = target: human ErbB2 receptor on BT474 human breast tumor cells (human) (UniProt P04626); experiment: Scatchard analysis, 125I-antibody on BT474 cell monolayers, on ice

% apoptosis of BT474 cell population (Hoechst 33342 cell cycle analysis, 3 days) [1]: 41.9% | proportion of S-phase cells (BT474, 3 days) [1]: 5.4% | Kd [2]: 6.5 nM
Substance: anti-ErbB2 IgG1κ murine monoclonal antibody 4D5 (ATCC CRL 10463)
